Assay results taken from publication PMC6850750 (Biochemistry, 2019).

Target: the molecule itself
Test: SEC

B1: YdjI (enzyme, E. coli K12)
chain: MLADIRYWENDATNKHYAIAHFNVWNAEMLMGVIDAAEEAKSPVIISFGTGFVGNTSFEDFSHMMVSMAQKATVPVITHWDHGRSMEIIHNAWTHGMNSLMRDASAFDFEENIRLTKEAVDFFHPLGIPVEAELGHVGNETVYEEALAGYHYTDPDQAAEFVERTGCDSLAVAIGNQHGVYTSEPQLNFEVVKRVRDAVSVPLVLHGASGISDADIKTAISLGIAKINIHTELCQAAMVAVKENQDQPFLHLEREVRKAVKERALEKIKLFGSDGKAE
modifications: Cys234 oxidized to cysteic acid (seen in the electron density of each subunit)
stoichiometry N: 4
